Assay: yeast display, Sf9 membrane polyspecificity reagent, FACS + sequencing; frameworks hold sequencing errors
How it was run: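 Synthetic nanobody libraries on Saccharomyces cerevisiae BJ5465 were galactose-induced for 36–48 hours, stained 1 hour at 4 °C with 10% biotinylated, detergent-solubilized Sf9 membrane reagent and enriched on streptavidin microbeads. FACS then separated cells into low and high (top ~1%) gates by anti-HA (expression) and streptavidin (reagent binding) fluorescence. Genes were colony-PCR amplified, MiSeq 2 × 250 sequenced and CDR-length filtered. A clone's polyreactivity label is that of its gate of origin.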

Row | Sequence | polyreactivity (PSR sort gate)
1 | QVQLRESGCGLVQAGGNLRLSCAASGNIFDADIMGWYRQAPGKERELVASITDGGSTYYADSVRCRFTISRDNAKNTVYLQMNSLKPEDTAVYYCTAIAYPDIPTYFDHDSDYFYWGQGTQVTVSS | high polyreactivity
2 | QVQLVESGGGLVQAGGSLRLSCAASGSIFYDNAMGWSRQAPGKERELVASIRWSGDSTYYADSVKGRFTISRDNAKNTVYLQMNSLKPEDTAVYYCAADPVEPYFTAIAYDYWGQGTQVTVSS | low polyreactivity
3 | QVQLVESGGGLVQAGGSLRLSCAASGGIFYGNVMGWYRQAPGKERQLVADITSVGSTYYADSVKGRFTFSRDNAKYTVYIQMNSLKPEDTAVYYCAAEPDHVAESHSGYDYWGQGTLVTVSS | low polyreactivity
4 | QVQLVESGGGLVQAGGSLRLSCAASGFTFQYYAMGWYRQAPGKERELVATITTSGGNTYYADSVKGRFTISRDNAKNTVYLQMNSLKPEDTAVYYCAARNARYVHTMEYWGQGTQVTVSS | high polyreactivity
5 | QVQLVESGGGLVQAGGSLRLSCAASGIIFSWYSMGWYIEAPGKERELVAAISWSGGRTYYSDSVKGRFTISRDNAKNNVYLQMNSLKPEDTAVYYCAAERNRYSHWEARYYWGQGTQVTVSS | high polyreactivity
6 | QVQLVESAGGLVQAGGSLRLSCAASGRIFWGNAMGWYRQAPGKERELVAAITRRGGTKFYADSVKGRFTISRDNAKNTVYLQMNSLIPEDTAVYYCAARRYGQYDGYDSWGQGTQVTVSS | high polyreactivity
7 | QLQLVESGGGLGQAGGSLRLSCAASGSIFDHYAMGWYRQAPGKERELVASMSKCGGSTYYADSVKGRFTISRDNAKNTVYLQMNSLKPEDTAVYYCASKQYYRGHNYWGQGTQVTVSS | high polyreactivity
8 | QVQLVESGGGLVQAGGSLRLSCAASGFTMARYAMGSYRQAPGKERELVAAISWSGGSTYYADSVKGRFTISRDNAKNTVYLQMNSLKPEDTAVYYCNAVYATRIGFDYWGQGTQVTVSS | high polyreactivity
9 | QVQLVESGGGLVQAGGSLRLSCAASGRTFWYYAMGWYRQAPGKERELVAAITYRGGSTYYADSVKGRFTISRDNVKNTVYLQMNSLKPEDTAVYYCARRVDSYYGHTRYYYWGQGTQVTVSS | high polyreactivity
10 | QVQLVESGGGLVQAGGSLRLSCAASGRTFVSNAMGWYRQAPGKERELVAGINWTDDSTYYADSVKGRFTISRDNAKNTVYLQMNSLKPEDTAVYYCAADSWEFAWPRFDYWGQGTQVTVSS | low polyreactivity
11 | QVQLVESGGGLVQAGGSLRLSCAASGITFQTYAMGWYRQAPGKERELVAAIRWGGGTTYYADSVKGRFTISRDNAKNTVYLQMNSLKPEDTAVYYCAARTYYRRGGRVDYWGQGTQVTVSS | high polyreactivity
12 | QVQLVESGGGLVQAGGSLRISCAASGRIFSFYAMGWYRQAPGKERELVAAISYSDGSTYYADSVKGRFTISRDNAKNTVYLQMNSLKPEDTAVYYCAKYGYDHDYNYWGQGTQVTVSS | low polyreactivity
13 | QVQLVESGGGLVQAGGSLRLSCAASGSTFSYYAMGWDRQAPWKERELVAAITAGGGSTYYADSVKGRFTISRDNAKNTVYLQMNSLKPEDTAVYYCNADQIFGPALNLWKLDYWGQGTQVTVSS | low polyreactivity
14 | QVQLVESGGGLVQAGGSLRLSCAASGRIFKSYAMGGYRHAPGKERELVAAISSGDDTYYADSVKGRFTISRDNAKNTVYLQMNSLKQEDTAVYYCAADYWGWIYLYGDYLVDYWGQGTQVTVSS | low polyreactivity
15 | QVQLVESGGGLVQAGGTLRLSCAATGRTFAPNSMGWYRHAPGKERELFAAISWSGTSTYYADSVKGRFTISRDNAKNTVYLQMNSLKPEDTAVYYCAADLEGRVGSPWTYDYWGQGTQVTVSS | low polyreactivity
16 | QVQLVDSGGGLVQAGGSLRLSCAASGITFGYYAMGWYRQAPGKERELVAAISFTGASTYYADSVKGRFTISRDNAKNTVYLQMYSLKPEDTAVYYCAADPYVPYHDFLSGFDYWGQGTQVTVSS | low polyreactivity
17 | QVQLVESGGGLVQAGGSLRLSCAASGRTFFSYAMGWYRQAPGKERELVAAISRRGSSTYYADSVKGRFTISRDNAKNTVYLQMNSLKPEDTAVYYCAADVVRGSRYNRYGYWGQGTQVTVSS | high polyreactivity
18 | QVQLVESGGGLVQAGGSLRLSCAASGSTFRYNAMGWYRQAPGKERELVAAITSTGDSTYYADSVKGRFTISRDNAKNTVYLQMNSLKPEVTAVYYCAARSYASPGWRYEFWGQGTQVTVSS | low polyreactivity
19 | QVQLVESGGGLVQAGGSLRLSCAASGSIFDPYAMGWYRQAPGKERELVAAISFSGGSTSYADSVKGRFTISRDNAKNTVYLQMNSLTPEATAVYYCAKRARFYSETDLKPYGFDYWGHGTQVTVSS | low polyreactivity
20 | QVQLVESGGGLVQAGGSLRLSCAASGSIFPRNAMGWSRQAPGKEMELVATITSGTSTNYADSVKGRFTISRDNAKNTVYLQMNSLKPEDTAVYYCAADHYYTGTTYNYWGQGTQVTVSS | low polyreactivity
21 | QVQLVESGGGLVQAGGSLRLSCAASGSIFTPNVMGWYRQAPGKERELVAAISQSGGSTFYADSVKGRFTISRDNAKNTVYLQMNSLKPEDTAVYYCAADDGYTYYYWGQGTQVTVSS | low polyreactivity
22 | QVQLVESGGGLVQAGGSLRLSCAASGSIFSYNAMGWYRQAPGKERELFAAITWSGGSTYYADSVKGRFTISRDNAKNTVYLQMNSLKPEDTAVYYCAAKGGYSTGRPTYTKFNYWGQGTQVTVSS | high polyreactivity

Row | Sequence | polyreactivity (PSR sort gate)
23 | QVQLVESGGGLVQAGGSLRLSCAASGSIFVGYAMGRYRQAPGKERELVAAISSRGGSTYYADSVKGRFTISRDNAKNTVYLQMNSLKPEDTGVYYCAAEYRAWWYEYDYWGQGTQVTVSS | high polyreactivity
24 | QVQLVESGGGLVQAGGSLRLSCAASGFTFTYYTMGWYRQAPGKARELVAAISWSGGSTYYADSVKGRLTISRDNANNPVYLQMNSLKPEDTEVYYCNKVGIGYNTKRDYWGQGTQVTVSS | high polyreactivity
25 | QVQLVESGGGLVQAGGSLRLRGAASGSTFIFNVRGWYRQAPGKERELVAVISWSGGSTYYADSVKGRFTISRDNAKNTVYLQMNSLKPEDTAVYYCARDQTFGPSPYDWYYYPGYDYWGQGTQVTVSS | low polyreactivity
26 | QVQHVESAGRLVQAGGSLRLSCAASGRILVYYALGWYRQPPGKEREFVAAISQRGGSTYYADSVKGRFTISRDNAKNTVYLQMNSLKPDDTEVYYCATRPIQYRRGYDYWGQGTQVTVSS | high polyreactivity
27 | QVQLVESGGGLVQAGGSLRLSCAASGYIFYAYAMGWYRQAPGKERELVAAISSGGGRTYYADSVKGRFTISRDNAKNTVDLQRNSLKPEDTAVYYCAARRRDRGEYYYWGQGTQVTVSS | high polyreactivity
28 | QVQLVESGGGLVQAGGSLRLSCAASGSIFRGNVMGWYRQAPGKERELVAAISWSGGSTYYADSVKGRFTISRDNAKNTVYLQMNSLKPEDTAVYYCAVRVWGSARGMDYWGQGTQVTVSS | high polyreactivity
29 | QVQLVESGGGLVQAGGSLRLSCAASGFTFRAYAMGWSRQAPGKERELVAAISTGGGSTYYADSVKGRFTISRDNAKNTVYLQMNSLKPEDTAVYYCNALPQRRYYYWGQGTQVTVSS | high polyreactivity
30 | QVQLVESGGGLVQAGGSLRLSCAASGYTFAWYAMGWYRQAPGKERELVAAITVSGGSTYYADSVKGRFTISRDNAKNTVYVQMNSLKPEDTAVYYCAADYAPLDLYQDSTVYSSGDYWGQGTQVTVSS | low polyreactivity
31 | QVQLVESGGGLVQAVGSLRLSCAASGSILASNAMGWYRQAPGKERELVAAITTSGGSTYYADSVKGRFTISRDNAKNTVYLQMNSLKPEDTAVYYCNAEYWLGRWLRYGYWGQGTQVTVSS | high polyreactivity
32 | QVQLVESGGGLVQAGGSLRLSCAASGSIFAKYAMGWYRQAPGKERELVAAITSGGSTNYADSVKGRFTISRDNAKITVYLQINSLKPEDTAVYYCNATGLYYDFYKLDYWGQGTQVTVSS | low polyreactivity
33 | QVQLVESGGGLVQAVGSLRLSCAASGRIFGPNAMGWYRQAPGKERELVAAITGSGGSTYADSVKGRFTISRDNAKNTVYLQMNSLKPEDTAVYYCAKKTWYSYDWGQGTQVTVSS | high polyreactivity
34 | QVQLQESGGGLVQAGGSLRPRCAAGGTIFVSVNMGWYRHAPGEEREFVASITQGATTNYADSLIGRFTISRDNAKNTVYLQMNCQNQEDTAVYYCAVHESGGITFTYWGQGTQVTVSS | high polyreactivity
35 | QVQLVESGGGLVQAGGSLRLSCAASGSTFDWYTMGWYRQATGKERELVADITSGGSTYYADSVKGRFTISRDNAKNTVYLQMNSLKPEDTAAYYCNAYLYTWRWAFDYWGQGTQVTVSS | high polyreactivity
36 | QVQLVESGGGLVQAGGSLRLSCAASGSIFIFNAMVWYRQAPGKEREFVARIRRDSSTYYADSVKGRFTISRDNAKNTVYLQMNSLKPEDTAVYYCAAKRVYRRVELNSWGQGTQVTVSS | low polyreactivity
37 | QVQLVESGGGLVQAGGSLRLSCAASGRIFTRYAMGWYRQAPGKERELVAAINYRGSSTYYADSVKGRFTISRDNAKNTVYLQMNSLKPEDTAVYYCNTYGQTDTYWRYYYWGQGTQVTVSS | high polyreactivity
38 | QVQLVESGGGLVQAGGSLRLSCAASGSTYAVNVMGWYRQAPGKERELVATITYRDGRTYYADSVKGRFTISRDNAKNTVYLQMNSLKPEDTAVYYCAADAYRAQGDYWGQGTQVTVSS | low polyreactivity
39 | QVQLVESVGGLVQAGGSLRLSCAASGRTLYPNAMGWYRQAPGKERELVASISWSGVSTYYADSVKGRFTISRDNAKNTVYLQMNSLKPEDTAVYYCNAVGYWSDGLVWYEGDYWGQGTQVTVSS | low polyreactivity
40 | QVQLVESGGGLVQAGGSLRLICAASGSTFGLNTMGWYRQAPGKDRELVAGITWSGGTTYYADSVKGRFTISRDNAKNTVYLQMNSLKPEDTAVYYCAAAVCDHYWYSRAYYYWGQGTQVTLSS | high polyreactivity
41 | QVQLVESGGGLVQAGGSLRLSCAASGNTINKYAMGWYRQAPGKERELVAAITRSGGSTYYADSVKGRFTISRDKAKNTVYLQMNSLKPEDTAVYYCAAAYWILYYPIDQAFDYWGQGTQVTVSS | low polyreactivity
42 | QVQLVESGGGLVQAGGSLRLSCAASGITFGFNAMGWYRQAPGKERELVAAIRWGSGRTYYADSVKGRFTISRDNAKNTVYLQMNSLKPEDTAVYYCAAAPTTGKRPGYYYWGQGTQVTVSS | high polyreactivity
43 | QVQLVESGGGLVQAGGSLRLSCAASGITFRTNTMGWYRQAPGKEREFVAAISSNGGRTYYADSVKGRFTISRDNAKNTVYLQMNSLKPEDTAVYYCNARTKHRYEYDYWGQGTQVTVSS | high polyreactivity

— the nanobody polyreactivity screen of Harvey et al. (2022)
